Reference: patent US20200338219A1 (ACTINIUM PHARMACEUTICALS, published 2020)

T1: human CD45 protein, wild-type (WT) construct expressed on HEK-293T cells (human, UniProt P08575 26-1306)
T1 construct: also called target protein (WT); PTPRC
T1 sequence: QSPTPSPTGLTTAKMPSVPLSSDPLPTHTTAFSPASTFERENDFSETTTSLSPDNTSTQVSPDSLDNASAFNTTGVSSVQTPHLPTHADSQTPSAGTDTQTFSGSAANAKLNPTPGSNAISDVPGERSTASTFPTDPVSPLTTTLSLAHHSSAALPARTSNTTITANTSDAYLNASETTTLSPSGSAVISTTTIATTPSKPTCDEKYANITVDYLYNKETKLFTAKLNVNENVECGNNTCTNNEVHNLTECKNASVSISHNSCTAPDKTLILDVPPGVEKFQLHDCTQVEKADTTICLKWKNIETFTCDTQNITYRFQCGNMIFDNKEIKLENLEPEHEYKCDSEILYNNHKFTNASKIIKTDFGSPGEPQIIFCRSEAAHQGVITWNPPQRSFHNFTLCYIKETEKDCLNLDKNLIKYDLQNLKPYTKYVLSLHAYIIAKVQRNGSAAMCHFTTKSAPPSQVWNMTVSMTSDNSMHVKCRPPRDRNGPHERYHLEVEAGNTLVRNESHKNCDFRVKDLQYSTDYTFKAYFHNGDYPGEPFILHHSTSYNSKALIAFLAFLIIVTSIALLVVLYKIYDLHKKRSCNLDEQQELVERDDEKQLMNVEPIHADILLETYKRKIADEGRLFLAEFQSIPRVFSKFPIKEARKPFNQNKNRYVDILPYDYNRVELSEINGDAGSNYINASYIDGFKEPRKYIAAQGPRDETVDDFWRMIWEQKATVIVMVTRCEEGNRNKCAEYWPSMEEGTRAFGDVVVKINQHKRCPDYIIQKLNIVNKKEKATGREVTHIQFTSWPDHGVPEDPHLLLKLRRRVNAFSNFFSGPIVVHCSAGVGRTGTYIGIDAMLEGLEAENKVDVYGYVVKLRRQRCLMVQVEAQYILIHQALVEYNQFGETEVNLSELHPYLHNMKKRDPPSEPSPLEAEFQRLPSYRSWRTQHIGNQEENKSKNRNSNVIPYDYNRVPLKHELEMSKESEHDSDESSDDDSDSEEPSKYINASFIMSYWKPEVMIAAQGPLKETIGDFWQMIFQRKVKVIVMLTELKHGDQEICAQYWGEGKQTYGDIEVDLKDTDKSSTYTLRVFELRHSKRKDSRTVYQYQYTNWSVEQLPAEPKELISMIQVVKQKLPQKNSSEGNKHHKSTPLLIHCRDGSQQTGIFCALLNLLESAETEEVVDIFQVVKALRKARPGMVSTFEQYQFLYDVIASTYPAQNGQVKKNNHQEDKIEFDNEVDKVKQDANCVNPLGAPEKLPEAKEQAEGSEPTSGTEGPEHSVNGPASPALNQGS

B1: murine anti-CD45 monoclonal antibody BC8 (antibody, mouse IgG1, kappa, V domains shown)
VH: EVKLLESGGGLVQPGGSLKLSCAASGFDFSRYWMSWVRQAPGKGLEWIGEINPTSSTINFTPSLKDKVFISRDNAKNTLYLQMSKVRSEDTALYYCARGNYYRYGDAMDYWGQGTSVTVSS
VL: DIALTQSPASLAVSLGQRATISCRASKSVSTSGYSYLHWYQQKPGQPPKLLIYLASNLESGVPARFSGSGSGTDFTLNIHPVEEEDAATYYCQHSRELPFTFGSGTKLEIKR
modifications: position 141 is found to be a mixture of ASP and ASN in the purified protein (deamidation of ASN-141)
notes: Purified from hybridoma ATCC HB-10507; also called BC8 MAb; anti-CD45 immunoglobulin BC8
B2: BC8 Fab (Fab, V domains shown)
VH: B1 VH
VL: B1 VL
notes: It was detected with an anti-mouse F(ab')2 secondary antibody; also called Test Fab

How the values were obtained:
[1] = biological target: T1, human CD45 protein, wild-type (WT) …; assay: high-throughput flow cytometry on HEK-293T cells expressing WT CD45 against vector alone, 5.00 µg/ml
Procedure: (§1) Cells were transfected with a wild-type (WT) construct of the target protein or with vector alone in 384-well format, followed by detection of cellular expression via high-throughput flow cytometry. Serial dilutions of each MAb were tested for immunoreactivity against cells expressing target protein (WT) or vector alone.

[2] = biological target: T1, human CD45 protein, wild-type (WT) …; assay: high-throughput flow cytometry on HEK-293T cells expressing WT CD45 against vector alone, 5.0 ug/ml
Procedure: as §1

Binder	Signal:Background [1]	Signal:Background [2]
B1	9 signal:background ratio	–
B2	–	6 signal:background ratio
